Assay [1] has as its target T1, chimeric GST-CycT1 (GST-T1; aa 1–292) (UniProt O60563 1-292). The assay is described as follows: pull-down.
The target in assay [2] is T1, chimeric GST-CycT1 (GST-T1; aa 1–292). The assay can be described thus: stopped-flow fluorescence.

The source of these data is article PMC1874611 (Nucleic Acids Research, 2007).

T1 sequence (O60563 1-292, change not shown): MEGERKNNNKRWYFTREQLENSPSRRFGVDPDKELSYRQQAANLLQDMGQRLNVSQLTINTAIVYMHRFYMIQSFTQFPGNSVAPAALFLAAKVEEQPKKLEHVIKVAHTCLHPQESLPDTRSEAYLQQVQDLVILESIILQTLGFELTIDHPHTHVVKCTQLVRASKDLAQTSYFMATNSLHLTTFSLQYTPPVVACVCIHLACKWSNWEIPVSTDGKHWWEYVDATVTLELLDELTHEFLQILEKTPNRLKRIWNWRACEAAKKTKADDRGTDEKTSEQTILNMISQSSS

B1: CycT1-binding domain of HEXIM1 (HEXIM1-TBD; aa 255–359) (domain or fragment)
chain: MGGDGSEFLQRDFSETYERYHTESLQNMSKQELIKEYLELEKCLSRMEDENNRLRLESKRLGGDDARVRELELELDRLRAENLQLLTENELHRQQERAPLSKFGD
Consider B1, for which, in assay [1], the binding result is “binds”.

B2: fluorescently labeled HEXIM1-TBD (HEXIM1-TBD*) (domain or fragment)
chain: MGGDGSEFLQRDFSETYERYHTESLQNMSKQELIKEYLELEKCLSRMEDENNRLRLESKRLGGDDARVRELELELDRLRAENLQLLTENELHRQQERAPLSKFGD
modifications: dansyl-based fluorophore (position not given)
As for B2, in assay [2], the binding result is reported as “binds”.
